Reference: patent US20210347873A1 (SHANGHAI PHARMAEXPLORER, published 2021)

T1: cynomolgus BLyS (full length, arginine to histidine at position 132) on CHO-K1 cells (cynomolgus, UniProt Q9Y275 1-285 (human entry))
T1 construct: also called cyno BLyS; CHO-K1 cynoBLyS
T1 chain: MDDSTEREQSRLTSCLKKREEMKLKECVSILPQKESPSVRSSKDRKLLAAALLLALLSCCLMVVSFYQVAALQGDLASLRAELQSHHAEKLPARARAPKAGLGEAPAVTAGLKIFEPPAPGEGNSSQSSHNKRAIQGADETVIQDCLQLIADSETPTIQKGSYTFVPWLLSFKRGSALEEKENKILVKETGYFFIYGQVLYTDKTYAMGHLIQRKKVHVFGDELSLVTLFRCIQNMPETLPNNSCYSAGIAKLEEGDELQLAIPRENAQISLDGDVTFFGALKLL


Tests used:
[1] = target: T2, human BLyS (full length, arginine to histidine at position 132) on CHO-K1 cells (human, UniProt Q9Y275 1-285); experiment: flow cytometry, CHO-K1 hBLyS cells, antibody 0.534 nM
T2 construct: also called hBLyS; CHO-K1 hBLyS
Method: (§1) The medium was aspirated completely, and the cells were rinsed once with PBS buffer (purchased from Invitrogen) and then treated with cell dispersion solution (TrypLE™ Express Enzyme, purchased from Life technology) and collected. The detailed steps are as follows: the cells were rinsed once with PBS buffer, after counting, the cells were diluted to 2×10⁶ cells/ml with PBS buffer, blocked with 2% (w/w) fetal bovine serum and incubated on ice for 30 minutes. 200 μL of which per well was aliquoted into a 96-well FACS plate and centrifuged at 2000 rpm at 4° C., then each 100 μL of the lead antibodies obtained from Embodiment 1 and 2 were aliquoted into each well and incubated on ice for 1 hour. […] After centrifuged and rinsed 3 times with FACS buffer, cells were suspended with 200 μL of FACS buffer and the results were detected and analyzed by FACS (FACS Calibur, purchased from BD). It was shown in Tables 12-13 that the lead antibody could bind to human BLyS protein on the cell surface and the lead antibody could cross-react with cynomolgus BLyS. The data in the table is MFI, the average fluorescence intensity of the cell population.

[2] = target: T1, cynomolgus BLyS (full length, arginine …); experiment: flow cytometry, CHO-K1 cynoBLyS cells, antibody 0 nM
Method: as §1

[3] = target: hBLyS-ECD (His-tagged extracellular domain of human BLyS protein, Ala134-Leu285) (human, UniProt Q9Y275 134-285); experiment: cell-based or functional assay
[4] = target: T1, cynomolgus BLyS (full length, arginine …); experiment: flow cytometry, CHO-K1 cynoBLyS cells, antibody 0.0213 nM
Method: as §1

[5] = target: T1, cynomolgus BLyS (full length, arginine …); experiment: flow cytometry, CHO-K1 cynoBLyS cells, antibody 0.00427 nM
Method: as §1

[6] = target: T1, cynomolgus BLyS (full length, arginine …); experiment: flow cytometry, CHO-K1 cynoBLyS cells, antibody 0.534 nM
Method: as §1

[7] = target: T1, cynomolgus BLyS (full length, arginine …); experiment: flow cytometry, CHO-K1 cynoBLyS cells, antibody 2.67 nM
Method: as §1

[8] = target: T1, cynomolgus BLyS (full length, arginine …); experiment: flow cytometry, CHO-K1 cynoBLyS cells, antibody 0.107 nM
Method: as §1

[9] = target: T2, human BLyS (full length, arginine to …); experiment: flow cytometry, CHO-K1 hBLyS cells, antibody 0.107 nM
Method: as §1

[10] = target: T1, cynomolgus BLyS (full length, arginine …); experiment: flow cytometry, CHO-K1 cynoBLyS cells, antibody 13.3 nM
Method: as §1

[11] = target: T2, human BLyS (full length, arginine to …); experiment: flow cytometry, CHO-K1 hBLyS cells, antibody 0 nM
Method: as §1

[12] = target: T2, human BLyS (full length, arginine to …); experiment: flow cytometry, CHO-K1 hBLyS cells, antibody 0.0213 nM
Method: as §1

[13] = target: T1, cynomolgus BLyS (full length, arginine …); experiment: flow cytometry, CHO-K1 cynoBLyS cells, antibody 66.7 nM
Method: as §1

mouse BLyS protein = mouse BLyS protein (mouse, UniProt Q9WU72 69-309); experiment: cell-based or functional assay
mouse BLyS protein, sequence (Q9WU72 69-309): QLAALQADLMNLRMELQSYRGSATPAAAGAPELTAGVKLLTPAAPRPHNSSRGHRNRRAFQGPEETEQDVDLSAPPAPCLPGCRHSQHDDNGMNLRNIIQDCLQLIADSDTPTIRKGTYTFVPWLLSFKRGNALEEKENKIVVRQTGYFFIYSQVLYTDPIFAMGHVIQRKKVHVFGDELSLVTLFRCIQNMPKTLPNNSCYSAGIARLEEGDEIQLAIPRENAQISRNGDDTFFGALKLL

[14] = target: T2, human BLyS (full length, arginine to …); experiment: flow cytometry, CHO-K1 hBLyS cells, antibody 2.67 nM
Method: as §1

[15] = target: T2, human BLyS (full length, arginine to …); experiment: flow cytometry, CHO-K1 hBLyS cells, antibody 0.00427 nM
Method: as §1

[16] = target: T2, human BLyS (full length, arginine to …); experiment: flow cytometry, CHO-K1 hBLyS cells, antibody 66.7 nM
Method: as §1

[17] = target: T2, human BLyS (full length, arginine to …); experiment: flow cytometry, CHO-K1 hBLyS cells, antibody 13.3 nM
Method: as §1

Binder	MFI [1]	MFI [2]	mouse B lymphocyte proliferation (OD450 nm), antibody 0 nM [3]	mouse B lymphocyte proliferation (OD450 nm), antibody 0.000256 nM [3]	mouse B lymphocyte proliferation (OD450 nm), antibody 0.00128 nM [3]	mouse B lymphocyte proliferation (OD450 nm), antibody 0.0064 nM [3]	mouse B lymphocyte proliferation (OD450 nm), antibody 0.032 nM [3]	mouse B lymphocyte proliferation (OD450 nm), antibody 0.16 nM [3]	mouse B lymphocyte proliferation (OD450 nm), antibody 0.8 nM [3]	mouse B lymphocyte proliferation (OD450 nm), antibody 4 nM [3]	mouse B lymphocyte proliferation (OD450 nm), antibody 20 nM [3]	mouse B lymphocyte proliferation (OD450 nm), antibody 100 nM [3]	MFI [4]	MFI [5]	MFI [6]	MFI [7]	MFI [8]	MFI [9]	MFI [10]	MFI [11]	other results
97E7B3F2 (antibody, V domains shown, Mouse hybridoma monoclonal antibody purified on Protein G) VH: EVQLQQSGPELVKSGASVKISCKASGYTFTDHKMHWVKQSHGKSLEWIGYISPYNGGTGYNQKFKSKVTLTVDISSSTAYMELRSLTSEDSAVYYCARWGFYDVMDSWGQGTSVTVSS VL: DVLLTQTPLSLPVSLGDQASISCRSSQTIVHIIGDTYLEWYLQKPGQSPKLLIYKVSNRFSGVPDRFSGSGAGTDFTLKISRVEAEDLGVYYCFQGSHVPRTFGGGTKLEIK	318 MFI	22.8 MFI	2960 OD450 nm	3380 OD450 nm	3760 OD450 nm	3770 OD450 nm	2940 OD450 nm	2990 OD450 nm	438 OD450 nm	364 OD450 nm	383 OD450 nm	377 OD450 nm	112 MFI	53 MFI	688 MFI	705 MFI	288 MFI	174 MFI	710 MFI	32.4 MFI	MFI [12]: 78.7 MFI; MFI [13]: 770 MFI; mouse B lymphocyte proliferation (OD450 nm), antibody 0 nM (mouse BLyS protein): 2130 OD450 nm; mouse B lymphocyte proliferation (OD450 nm), antibody 0.000256 nM (mouse BLyS protein): 2200 OD450 nm; mouse B lymphocyte proliferation (OD450 nm), antibody 0.00128 nM (mouse BLyS protein): 2150 OD450 nm; mouse B lymphocyte proliferation (OD450 nm), antibody 0.0064 nM (mouse BLyS protein): 2310 OD450 nm; mouse B lymphocyte proliferation (OD450 nm), antibody 0.032 nM (mouse BLyS protein): 2580 OD450 nm; mouse B lymphocyte proliferation (OD450 nm), antibody 0.16 nM (mouse BLyS protein): 2360 OD450 nm; mouse B lymphocyte proliferation (OD450 nm), antibody 0.8 nM (mouse BLyS protein): 2310 OD450 nm; mouse B lymphocyte proliferation (OD450 nm), antibody 4 nM (mouse BLyS protein): 2410 OD450 nm; mouse B lymphocyte proliferation (OD450 nm), antibody 20 nM (mouse BLyS protein): 2290 OD450 nm; mouse B lymphocyte proliferation (OD450 nm), antibody 100 nM (mouse BLyS protein): 2310 OD450 nm; MFI [14]: 332 MFI; MFI [15]: 48.2 MFI; MFI [16]: 406 MFI; MFI [17]: 349 MFI
93C6F10D3 (antibody, V domains shown, Mouse hybridoma monoclonal antibody purified on Protein G) VH: EVQLVESGGGLVTPGGSLKLSCVASGFAFSTYGMSWVRQTPERRLEWVAYISGGGGSIYYPDSVKGRFTISRDNAKNILYLQMSSLKSEDTAMYHCTRHPDLLLRYDYALDHWGQGTSVTVSS VL: DIQMTQSPASLSASVGETVTITCRASENIHIYLAWYQQKQGKSPQLLVYNGKTLADGVPSRFSGSGSGTQYSLKINTLQPEDFGNYYCQHFWNSTWTFGGGTKLEIK	306 MFI	21.9 MFI	3030 OD450 nm	3420 OD450 nm	3550 OD450 nm	4050 OD450 nm	4360 OD450 nm	3530 OD450 nm	799 OD450 nm	514 OD450 nm	466 OD450 nm	416 OD450 nm	112 MFI	46.9 MFI	706 MFI	729 MFI	308 MFI	175 MFI	714 MFI	31.6 MFI	MFI [12]: 76.6 MFI; MFI [13]: 785 MFI; mouse B lymphocyte proliferation (OD450 nm), antibody 0 nM (mouse BLyS protein): 2310 OD450 nm; mouse B lymphocyte proliferation (OD450 nm), antibody 0.000256 nM (mouse BLyS protein): 2310 OD450 nm; mouse B lymphocyte proliferation (OD450 nm), antibody 0.00128 nM (mouse BLyS protein): 2290 OD450 nm; mouse B lymphocyte proliferation (OD450 nm), antibody 0.0064 nM (mouse BLyS protein): 2510 OD450 nm; mouse B lymphocyte proliferation (OD450 nm), antibody 0.032 nM (mouse BLyS protein): 2540 OD450 nm; mouse B lymphocyte proliferation (OD450 nm), antibody 0.16 nM (mouse BLyS protein): 2540 OD450 nm; mouse B lymphocyte proliferation (OD450 nm), antibody 0.8 nM (mouse BLyS protein): 2530 OD450 nm; mouse B lymphocyte proliferation (OD450 nm), antibody 4 nM (mouse BLyS protein): 2640 OD450 nm; mouse B lymphocyte proliferation (OD450 nm), antibody 20 nM (mouse BLyS protein): 2620 OD450 nm; mouse B lymphocyte proliferation (OD450 nm), antibody 100 nM (mouse BLyS protein): 2740 OD450 nm; MFI [14]: 317 MFI; MFI [15]: 44.9 MFI; MFI [16]: 392 MFI; MFI [17]: 327 MFI
89A2G5E7 (antibody, V domains shown, Mouse hybridoma monoclonal antibody purified on Protein G) VH: QVQLKESGPGLVAPSQSLSITCTVSGLSLNSHDISWIRQPPGKGLEWLGVIWSGGGTKYNSAFMSRLSISKDNSKSQVFLKMNSLHTDDTAIYYCVRTPSMITYSAMDYWGQGTSVTVSS VL: EIVLTQSPALMAASPGEKVTITCSVSSSISSRNLHWYQQKSQTSPKAWIHATSNLASGVPVRFSGSGSGTSYSLTISSMEAEDAATYYCQQWSSYPLTFGSGTKLEIK	192 MFI	21.2 MFI	3440 OD450 nm	3120 OD450 nm	3700 OD450 nm	3700 OD450 nm	3360 OD450 nm	3270 OD450 nm	530 OD450 nm	431 OD450 nm	433 OD450 nm	414 OD450 nm	53.6 MFI	32.1 MFI	355 MFI	726 MFI	125 MFI	92.1 MFI	829 MFI	31 MFI	MFI [12]: 48.1 MFI; MFI [13]: 884 MFI; mouse B lymphocyte proliferation (OD450 nm), antibody 0 nM (mouse BLyS protein): 2090 OD450 nm; mouse B lymphocyte proliferation (OD450 nm), antibody 0.000256 nM (mouse BLyS protein): 2170 OD450 nm; mouse B lymphocyte proliferation (OD450 nm), antibody 0.00128 nM (mouse BLyS protein): 2270 OD450 nm; mouse B lymphocyte proliferation (OD450 nm), antibody 0.0064 nM (mouse BLyS protein): 2170 OD450 nm; mouse B lymphocyte proliferation (OD450 nm), antibody 0.032 nM (mouse BLyS protein): 2390 OD450 nm; mouse B lymphocyte proliferation (OD450 nm), antibody 0.16 nM (mouse BLyS protein): 2370 OD450 nm; mouse B lymphocyte proliferation (OD450 nm), antibody 0.8 nM (mouse BLyS protein): 2640 OD450 nm; mouse B lymphocyte proliferation (OD450 nm), antibody 4 nM (mouse BLyS protein): 2480 OD450 nm; mouse B lymphocyte proliferation (OD450 nm), antibody 20 nM (mouse BLyS protein): 2640 OD450 nm; mouse B lymphocyte proliferation (OD450 nm), antibody 100 nM (mouse BLyS protein): 2480 OD450 nm; MFI [14]: 374 MFI; MFI [15]: 37 MFI; MFI [16]: 431 MFI; MFI [17]: 406 MFI
